Reference: patent publication US11512128B2, “VEGF/DLL4 binding agents and uses thereof” (MEREO BIOPHARMA 5, INC., priority 2011, dated 2022)
Residue numbers refer to the chain shown, from its start.

B1: 219R45-MB-21R79: anti-VEGF/anti-DLL4 monovalent/bispecific antibody, heavy chains SEQ ID NO:7 and 6, light chains SEQ ID NO:8 (antibody)
heavy 1: QVQLVQSGAEVKKPGASVKVSCKASGYTFTNYWMHWVRQAPGQGLEWMGDINPSNGRTSYKEKFKRRVTLSVDKSSSTAYMELSSLRSEDTAVYFCTIHYDDKYYPLMDYWGQGTLVTVSSASTKGPSVFPLAPCSRSTSESTAALGCLVKDYFPEPVTVSWNSGALTSGVHTFPAVLQSSGLYSLSSVVTVPSSNFGTQTYTCNVDHKPSNTKVDKTVERKCCVECPPCPAPPVAGPSVFLFPPKPKDTLMISRTPEVTCVVVDVSHEDPEVQFNWYVDGVEVHNAKTKPREEQFNSTFRVVSVLTVVHQDWLNGKEYKCKVSNKGLPAPIEKTISKTKGQPREPQVYTLPPSREKMTKNQVSLTCLVKGFYPSDIAVEWESNGQPENNYKTTPPMLKSDGSFFLYSKLTVDKSRWQQGNVFSCSVMHEALHNHYTQKSLSLSPGK
heavy 2: QVQLVQSGAEVKKPGASVKISCKASGYSFTAYYIHWVKQAPGQGLEWIGYIANYNRATNYNQKFKGRVTFTTDTSTSTAYMELRSLRSDDTAVYYCARDYDYDVGMDYWGQGTLVTVSSASTKGPSVFPLAPCSRSTSESTAALGCLVKDYFPEPVTVSWNSGALTSGVHTFPAVLQSSGLYSLSSVVTVPSSNFGTQTYTCNVDHKPSNTKVDKTVERKCCVECPPCPAPPVAGPSVFLFPPKPKDTLMISRTPEVTCVVVDVSHEDPEVQFNWYVDGVEVHNAKTKPREEQFNSTFRVVSVLTVVHQDWLNGKEYKCKVSNKGLPAPIEKTISKTKGQPREPQVYTLPPSREEMTKNQVSLTCLVEGFYPSDIAVEWESNGQPENNYKTTPPMLDSDGSFFLYSELTVDKSRWQQGNVFSCSVMHEALHNHYTQKSLSLSPGK
light: DIVMTQSPDSLAVSLGERATISCRASESVDNYGISFMKWFQQKPGQPPKLLIYAASNQGSGVPDRFSGSGSGTDFTLTISSLQAEDVAVYYCQQSKEVPWTFGGGTKVEIKRTVAAPSVIFPPSDEQLKSGTASVVCLLNNFYPREAKVQWKVDNALQSGNSQESVTEQDSKDSTYSLSSTLTLSKADYEKHKVYACEVTHQGLSSPVTKSFNRGEC
modifications: 21R79 Heavy chain without predicted signal sequence; Light chain without predicted signal sequence
B2: 219R45-MB-21M18: anti-VEGF/anti-DLL4 monovalent/bispecific antibody, heavy chains SEQ ID NO:7 and 5, light chains SEQ ID NO:8 (antibody)
heavy 1: B1 heavy 1
heavy 2: B1 heavy 2 with A52S, N53S, R56G
light: B1 light
modifications: 21R79 Heavy chain without predicted signal sequence; 21M18 Heavy chain without predicted signal sequence; Light chain without predicted signal sequence

What was measured:
[1] = molecular target: VEGF and DLL4 (Homo sapiens, UniProt P15692+Q9NR61); assay: Bispecific antibody ELISA; type: binding; set-up: purchased ATGEN, South Korea
Protocol: FIG. 7. Bispecific antibody ELISA. Bispecific antibodies 219R45-MB-21M18, 219R45-MB-21R79, 219R45-MB-21R75, and 219R45-MB-21R83 were diluted in blocking buffer (1× PBS, 0.1% gelatin, 0.1% Polysorbate-20, pH 7.4) containing 2 μg/ml biotin-DLL4-hFc. The antibodies were serially diluted 3-fold from 500 ng/ml to 0.008 ng/ml. The antibody samples were incubated for 2 hours in blocking buffer containing the biotin-DLL4-hFc. After incubation, the antibody samples were transferred to a VEGF-coated assay plate (100 ul/well) and incubated for 2 hours. Streptavidin-HRP was added to each well and incubated for 1 hr. TMB substrate was added to the wells with a 10 minute color development and the reaction was stopped with 2M sulfuric acid. Absorbance was read at 450-650 nm and the data analyzed using the 4-parameter fit within the Softmax Pro analysis program.
VEGF (ATGEN, South Korea) was coated onto Nunc maxisorb plates at 2 ug/ml (100 μl/well) and incubated overnight at 2-8° C. Bispecific antibodies 219R45-MB-21M18, 219R45-MB-21R79, 219R45-MB-21R75, and 219R45-MB-21R83 were diluted in blocking buffer (1× PBS, 0.1% gelatin, 0.1% Polysorbate-20, pH 7.4) containing 2 μg/ml biotin-DLL4-hFc. […] Absorbance was read at 450-650 nm and the data analyzed using the 4-parameter fit within the Softmax Pro analysis program (Molecular Devices, Sunnyvale, Calif.).

[2] = tested on: OMP-C8 colon tumor; assay: OMP-C8 colon tumor growth in vivo; set-up: species or system NOD/SCID mice
Protocol: FIGS. 11A and 11B. Inhibition of colon tumor growth in vivo by anti-VEGF/anti-DLL4 bispecific antibodies. OMP-C8 colon tumor cells were injected subcutaneously into NOD/SCID mice. Mice were treated with control antibody (-▪-), anti-VEGF antibody bevacizumab (-▴-), or anti-VEGF/anti-DLL4 bispecific antibodies 219R45-MB-21M18 (-⋄-), 219R45-MB-21R75 (-●-), 219R45-MB-21R79 (-∘-), or 219R45-MB-21R83 (-▾-). Mice were treated with antibodies as single agents (FIG. 11A) or in combination with irinotecan (FIG. 11B). Antibodies were administered intraperitoneally at a dose of 15 mg/kg once a week and irinotecan at a dose of 7.5 mg/kg one a week. Data are shown as tumor volume (mm^3) over days post-treatment.
Single cell suspensions of OMP-C8 colon tumor xenografts (50,000 cells) were injected subcutaneously into the flanks of 6-8 week old NOD/SCID mice. Tumors were allowed to grow for 21 days until they reached an average volume of 80 mm^3. The mice were randomized (n=8 per group) and treated with anti-DLL4 antibody 21M18, anti-VEGF antibody bevacizumab, anti-VEGF/anti-DLL4 bispecific antibodies 219R45-MB-21M18, 219R45-MB-21R75, 219R45-MB-21R79, 219R45-MB-21R83, or control antibody, either alone or in combination with irinotecan. Antibodies and irinotecan were dosed weekly by injection into the intraperitoneal cavity. Bevacizumab and bispecific antibodies 219R45-MB-21M18, 219R45-MB-21R75, 219R45-MB-21R79, and 219R45-MB-21R83 were dosed at 15 mg/kg, and irinotecan was dosed at 7.5 mg/kg. Tumor growth was monitored and tumor volumes were measured with electronic calipers at the indicated time points. Data are expressed as mean±S.E.M.
Following the treatment phase, tumor sections were prepared and analyzed by hematoxylin and eosin (H&E) staining. […] This is characteristic of highly necrotic tumor tissue.

| Molecule | more potent than 219R45-MB-21M18 in bispecific ELISA [1] | inhibition of tumor growth in combination with irinotecan ([2]; antibody 15 mg/kg, irinotecan 7.5 mg/kg weekly ip) | H&E staining of tumor sections after treatment ([2]; in combination with irinotecan) |
| --- | --- | --- | --- |
| B1 | about 7 fold | – | – |
| B2 | – | greatest inhibition of tumor growth | dark pink staining regions providing evidence of extensive calcification |
